Reference: patent publication US20220259593A1, “CONTROL OF MAMMALIAN GENE DOSAGE USING CRISPR” (The Regents of the University of California, priority 2019, published 2022)

Test system: K562 CRISPRi cells
Test: Constant region variant library pooled growth screen, K562
Type: cell-based, human
Conditions: sgRNA constant region variants
Source text: We calculated relative activities for each targeting sequence:constant region pair by normalizing its phenotype to that of the targeting sequence paired with the unmodified constant region, identifying 409 constant region variants that on average conferred intermediate activity (0.1-0.9, FIG. 5B). Ten variants selected for individual evaluation also mediated intermediate levels of mRNA knockdown (FIG. 6B). Mapping the activities of constant region variants with single base substitutions onto the structure recapitulated known relationships between constant region structure and function (FIG. 5C).
The sequences in the library of modified constant regions were derived from the sgRNA (F+E) optimized sequence (23) modified to include a BlpI site (15). Each modified constant region was paired with 36 sgRNA targeting sequences (3 sgRNAs targeting each of 10 essential genes and six non-targeting negative control sgRNAs). The cloning strategy (described below) allowed the mutation of most positions in the sgRNA constant region. A variety of modifications were made, including substitutions of all single bases not in the BlpI restriction site (which is used for cloning), double substitutions including all substitutions at base-paired position pairs not before or in the BlpI site, and a variety of triple, quadruple, and sextuple substitutions, including base-pair-preserving substitutions at adjacent base-pairs.
The library was ordered and cloned in two parts. One part consisted of ˜100 modifications to the eight bases upstream of the BlpI restriction site. Constant region variants with mutations in this section were paired with each of the 36 targeting sequences, ordered as a pooled oligonucleotide library (Twist Biosciences), and cloned into pCRISPRia-v2 as described above. The second part consisted of ˜900 modifications to the 71 bases downstream of the BlpI restriction site. This part was cloned in two steps. First, all 36 targeting sequences were individually cloned into pCRISPRia-v2 as described above. The vectors were then pooled at an equimolar ratio and digested with BlpI (NEB) and XhoI (NEB). The modified constant region variants were ordered as a pooled oligonucleotide library (Twist Biosciences), PCR amplified with Phusion polymerase (NEB), digested with BlpI (NEB) and XhoI (NEB), and ligated into the digested vector pool, in a manner identical to previously published protocols and as described above, except for the different restriction enzymes.
Screens with the compact mismatched sgRNA library and the constant region library were conducted largely as described above, with smaller modifications during the screening procedure and an updated sequencing library preparation protocol. Briefly, the libraries were transduced in duplicate into K562 CRISPRi (both libraries) or HeLa CRISPRi cells (compact mismatched sgRNA library) as described above. K562 replicates were maintained separately in 0.15 to 0.3 L of RPMI-1640 in 0.3 L spinner flasks for the course of the screen. HeLa replicates were maintained in sets of ten 15-cm plates. Cells were selected with puromycin as described above (K562: 1 day of 0.75 μg/mL and 1 day of 0.85 μg/mL; HeLa: 2 days of 0.8 μg/mL and 1 day of 1 μg/mL). The remainder of the screen was carried out at >1000× library coverage (K562 compact mismatched sgRNA library: >2000×; HeLa compact mismatched sgRNA library: >1000×; K562 constant region library: >2000×). Multiple samples were harvested after 4 to 8 days of growth. For the drug screen, 10 μM lovastatin (ApexBio) or an equivalent volume of DMSO (vehicle) was added to flasks at t=0, and 3 days later cells were pelleted and re-suspended in fresh medium. Lovastatin (12 μM) or DMSO was again added after 5 and 9 days of growth, with media exchanges 3 days after drug supplementation. Multiple samples were harvested after 4 to 8 days for the K562 and HeLa growth screens. […]

[1] = activity relative to the un-modified constant region cr995
[2] = activity relative to the original, un-modified constant region cr995

| Molecule | Mean relative activity [1] | Mean relative activity [2] |
| --- | --- | --- |
| cr597 (nucleic acid, listed as DNA, chemistry not fully specified) guide: GTTTAAGAGCTAAGCTGGAAACAGCATAGCAAGTTTAAATAAGGCTAGTCCGTTATCACCTTGAAAAAGGGGGACCTAGTAGGTCCT | 0.9187 |  |
| cr243 (nucleic acid, listed as DNA, chemistry not fully specified) guide: GTTTAAGAGCTAAGCTGGAAACAGCATAGCAAGTTTAAATAAGGCTAGTCCGTTATCAACTCGAAAGAGTGGCCCTGAGTCAGGGCT | 0.9319 |  |
| cr614 (nucleic acid, listed as DNA, chemistry not fully specified) guide: GTTTAAGAGCTAAGCTGAAAACAGCATAGCAAGTTTAAATAAGGCTAGTCCGTTATCAACTTGAAAAAGTGGCACCGAGTCGGTGCT | 0.927 |  |
| cr977 (nucleic acid, listed as DNA, chemistry not fully specified) guide: GTTTAAGAGCTAAGCTGGAAACAGCATAGCAAGTTTAAATAAGGCTAGTCCGTTATCATCTTGAAAAAGAGGCACCAAGTTGGTGCT | 0.9127 |  |
| cr640 (nucleic acid, listed as DNA, chemistry not fully specified) guide: GTTTAAGAGCTAAGCTGGAAACAGCATAGCAAGTTTAAATAAGGCTAGTCCGTTATCAACTTGAAAAAGTGGCCCAGAGTCTGGGCT | 0.9186 |  |
| cr136 (nucleic acid, listed as DNA, chemistry not fully specified) guide: GTTTAAGAGCTAAGCTGGAAACAGCATAGCAAGTTTAAATAAGGTTAATCCGTTATCAACTTGAAAAAGTGGCGACGAGTCGTCGCT | 0.9172 |  |
| cr910 (nucleic acid, listed as DNA, chemistry not fully specified) guide: GTTTAAGAGCTAAGCTGGAAACAGCATAGCAAGTTTAAATAAGGCTAGTCCGTTATCAACTTGAAAAAGTGGAACGGAGTCCGTTCT | 0.9171 |  |
| cr450 (nucleic acid, listed as DNA, chemistry not fully specified) guide: GTTTAAGAGCTAAGCTGGAAACAGCATAGCAAGTTTAAATAAGGCTAGTCCGTTATCAACTTGAGAAAGTGGCGCCGAGTCGGCGCT |  | 1.064 |
| cr132 (nucleic acid, listed as DNA, chemistry not fully specified) guide: GTTTAAGAGCTAAGCTGGAAACAGCATAGCAAGTTTAAATAAGGCTAGTCCGTTATCAACTTGAGAAAGTGGCACTGAGTCAGTGCT | 0.9196 |  |
| cr375 (nucleic acid, listed as DNA, chemistry not fully specified) guide: GTTTAAGAGCTAAGCTTGAAACAGCATAGCAAGTTTAAATAAGGCTAGTCCGTTATCAACTTGAAAAAGTGGCACCGAGTCGGTGCT | 0.9294 |  |
| cr525 (nucleic acid, listed as DNA, chemistry not fully specified) guide: GTTTAAGAGCTAAGCTGGAAACAGCATAGCAAGTTTAAATAAGGCTAGTCCGTTATCACCTTGAAAAAGGGGCACGGAGTCCGTGCT | 0.9205 |  |
| cr409 (nucleic acid, listed as DNA, chemistry not fully specified) guide: GTTTAAGAGCTAAGCTGGAAAGAGCATAGCAAGTTTAAATAAGGCTAGTCCGTTATCAACTTGAAAAAGTGGCACCGAGTCGGTGCT | 0.9158 |  |
| cr838 (nucleic acid, listed as DNA, chemistry not fully specified) guide: GTTTAAGAGCTAAGCTGGAAACAGCATAGCAAGTTTAAATAAGGCCAGTCCGTTATCAACTTGAAAAAGTGGCACCGAGTCGGTGCT | 0.9187 |  |
| cr364 (nucleic acid, listed as DNA, chemistry not fully specified) guide: GTTTAAGAGCTAAGCTGGAAACAGCATAGCAAGTTTAAATAAGGCTAGTCCGTTATCAACATGAAAAAGTGGCACCGAGTCGGTGCT | 0.9193 |  |
| cr304 (nucleic acid, listed as DNA, chemistry not fully specified) guide: GTTTAAGAGCTAAGCTGGAAACAGCATAGCAAGTTTAAATAAGGCTAGTCCGTTATCAATTTGAGAAAATGGCACCGAGTCGGTGCT | 0.9285 |  |
| cr388 (nucleic acid, listed as DNA, chemistry not fully specified) guide: GTTTAAGAGCTAAGCTGGAAACAGCATAGCAAGTTTAAATAAGGCTAGTCCGTTATCAACTTGAAAAAGTGTAACCGAGTCGGTTAT | 0.9188 |  |
| cr361 (nucleic acid, listed as DNA, chemistry not fully specified) guide: GTTTAAGAGCTAAGCTCGAAACAGCATAGCAAGTTTAAATAAGGCTAGTCCGTTATCAACTTGAAAAAGTGGCACCGAGTCGGTGCT | 0.9312 |  |
| cr974 (nucleic acid, listed as DNA, chemistry not fully specified) guide: GTTTAAGAGCTAAGCTGGAAACAGCATAGCAAGTTTAAATAAGGCTAGTCCGTTATCAACTTGAGAAAGTGGCACCGTGTCGGTGCT | 0.9235 |  |
| cr752 (nucleic acid, listed as DNA, chemistry not fully specified) guide: GTTTAAGAGCTAAGCTGGAAACAGCATAGCAAGTTTAAATAAGGCTAGTCCGTTATCAACTTGATAAAGTGGCACCGAGTCGGTGCG | 0.9196 |  |
| cr567 (nucleic acid, listed as DNA, chemistry not fully specified) guide: GTTTAAGAGCTAAGCTGGAAACAGCATAGCAAGTTTAAATAAGGCTAGTCCGTTATCAACTTGCGAAAGTGGCACCGAGTCGGTGCT |  | 1.06 |
| cr275 (nucleic acid, listed as DNA, chemistry not fully specified) guide: GTTTAAGAGCTAAGCTGGAAACAGCATAGCAAGTTTAAATAAGGCTAGTCCGTTATCAACCTGAAAAGGTGGGACAGAGTCTGTCCT |  | 1.06 |
| cr769 (nucleic acid, listed as DNA, chemistry not fully specified) guide: GTTTAAGAGCTAAGCTGGAAACAGCATAGCAGGTTTAAATAAGGCTAGTCCGGAATCAACTTGAAAAAGTGGCACCGAGTCGGTGCT | 0.9268 |  |
| cr780 (nucleic acid, listed as DNA, chemistry not fully specified) guide: GTTTAAGAGCTAAGCTGGAAACAGCATAGCAAGTTTAAATAAGGCTAGTCCGTTATCAACTGGAAACAGTGGCACCTAGTAGGTGCT | 0.9287 |  |
| cr577 (nucleic acid, listed as DNA, chemistry not fully specified) guide: GTTTAAGAGCTAAGCTGGAAACAGCATGGCAAGTTTAAATAGGGCTAGTCCGTTCTCAACTTGAAAAAGTGGCACCGAGTCGGTGCT | 0.9309 |  |
